According to publication PMC10591911 (Cell reports, 2023):
Each block holds one molecule with its values, some of them ahead of it.

B3: recombinant 6His-3FLAG-Cdc14 (enzyme, S. cerevisiae, UniProt Q00684 1-551, looked up)
chain: MRRSVYLDNTIEFLRGRVYLGAYDYTPEDTDELVFFTVEDAIFYNSFHLDFGPMNIGHLYRFAVIFHEILNDPENANKAVVFYSSASTRQRANAACMLCCYMILVQAWTPHQVLQPLAQVDPPFMPFRDAGYSNADFEITIQDVVYGVWRAKEKGLIDLHSFNLESYEKYEHVEFGDFNVLTPDFIAFASPQEDHPKGYLATKSSHLNQPFKSVLNFFANNNVQLVVRLNSHLYNKKHFEDIGIQHLDLIFEDGTCPDLSIVKNFVGAAETIIKRGGKIAVHCKAGLGRTGCLIGAHLIYTYGFTANECIGFLRFIRPGMVVGPQQHWLYLHQNDFREWKYTTRISLKPSEAIGGLYPLISLEEYRLQKKKLKDDKRVAQNNIEGELRDLTMTPPSNGHGALSARNSSQPSTANNGSNSFKSSAVPQTSPGQPRKGQNGSNTIEDINNNRNPTSHANRKVVIESNNSDDESMQDTNGTSNHYPKVSRKKNDISSASSSRMEDNEPSATNINNAADDTILRQLLPKNRRVTSGRRTTSAAGGIRKISGSIKK

Experiments:
[1] = target: recombinant Bmh1-EGFP-His6 (S. cerevisiae) (UniProt P29311); assay: pull-down
[2] = target: recombinant Bmh1/2-EGFP-His6 (S. cerevisiae) (UniProt P29311); assay: pull-down
[3] = target: recombinant Bmh2-EGFP-His6 (S. cerevisiae) (UniProt P34730); assay: pull-down
[4] = target: Rim4-FLAG (S. cerevisiae) (UniProt P38741); assay: mass photometry
[5] = target: T1, Bmh1 (S. cerevisiae (endogenous in W303 …, UniProt P29311 1-267)); assay: mass photometry
T1 sequence (looked up): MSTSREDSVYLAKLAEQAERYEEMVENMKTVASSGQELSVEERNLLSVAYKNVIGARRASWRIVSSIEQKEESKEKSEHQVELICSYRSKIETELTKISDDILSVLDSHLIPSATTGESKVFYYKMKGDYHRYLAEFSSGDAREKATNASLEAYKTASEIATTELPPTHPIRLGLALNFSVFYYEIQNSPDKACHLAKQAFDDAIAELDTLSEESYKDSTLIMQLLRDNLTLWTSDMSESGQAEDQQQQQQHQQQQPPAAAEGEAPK

[6] = target: B3; assay: pull-down
[7] = target: T2, recombinant Rim4(PxLm)-His6 (S. cerevisiae, UniProt P38741 1-713, P454E455L456 to A454E455G456); assay: pull-down
T2 sequence (looked up): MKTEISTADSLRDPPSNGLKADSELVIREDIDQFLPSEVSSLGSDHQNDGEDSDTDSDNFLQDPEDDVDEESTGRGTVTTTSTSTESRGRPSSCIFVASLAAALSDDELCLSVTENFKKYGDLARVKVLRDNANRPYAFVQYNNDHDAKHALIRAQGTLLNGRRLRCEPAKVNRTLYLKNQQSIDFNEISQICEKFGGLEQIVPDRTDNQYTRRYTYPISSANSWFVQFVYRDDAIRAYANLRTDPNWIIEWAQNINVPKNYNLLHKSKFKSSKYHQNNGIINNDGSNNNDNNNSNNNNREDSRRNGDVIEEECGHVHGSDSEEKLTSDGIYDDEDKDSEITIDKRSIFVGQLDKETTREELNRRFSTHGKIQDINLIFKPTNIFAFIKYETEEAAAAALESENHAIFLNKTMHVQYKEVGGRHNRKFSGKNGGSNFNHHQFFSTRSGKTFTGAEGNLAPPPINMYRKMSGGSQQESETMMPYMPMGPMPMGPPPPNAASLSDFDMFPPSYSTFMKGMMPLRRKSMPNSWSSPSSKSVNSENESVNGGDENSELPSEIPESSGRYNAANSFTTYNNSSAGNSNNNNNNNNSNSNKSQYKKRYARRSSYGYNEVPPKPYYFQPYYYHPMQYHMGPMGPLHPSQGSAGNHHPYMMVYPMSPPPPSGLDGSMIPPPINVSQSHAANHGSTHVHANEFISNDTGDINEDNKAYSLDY

- mole ratio in the pull-down, printed 2.5:1 [1]: 2.5
- mole ratio in the pull-down, printed 2.5:1 [2]: 2.5
- mole ratio in the pull-down, printed 2.5:1 [3]: 2.5
Molecule: PKA-treated Rim4-His6 (Rim4-BBS-p) (from UniProt P38741 1-713) (natural protein)

- stoichiometry N [4]: 1
Molecule: Bmh2 (from UniProt P34730 1-273) (natural protein)

- stoichiometry N [4]: 1
Molecule: Bmh1 (from UniProt P29311 1-267) (natural protein)

- stoichiometry N [5]: 1
B1: Bmh2 (natural protein, UniProt P34730 1-273, looked up)
chain: MSQTREDSVYLAKLAEQAERYEEMVENMKAVASSGQELSVEERNLLSVAYKNVIGARRASWRIVSSIEQKEESKEKSEHQVELIRSYRSKIETELTKISDDILSVLDSHLIPSATTGESKVFYYKMKGDYHRYLAEFSSGDAREKATNSSLEAYKTASEIATTELPPTHPIRLGLALNFSVFYYEIQNSPDKACHLAKQAFDDAIAELDTLSEESYKDSTLIMQLLRDNLTLWTSDISESGQEDQQQQQQQQQQQQQQQQQAPAEQTQGEPTK

- binding result [6]: binds
B2: recombinant Rim4(ΔC289)-His6 (domain or fragment, S. cerevisiae, UniProt P38741 1-424, looked up)
chain: MKTEISTADSLRDPPSNGLKADSELVIREDIDQFLPSEVSSLGSDHQNDGEDSDTDSDNFLQDPEDDVDEESTGRGTVTTTSTSTESRGRPSSCIFVASLAAALSDDELCLSVTENFKKYGDLARVKVLRDNANRPYAFVQYNNDHDAKHALIRAQGTLLNGRRLRCEPAKVNRTLYLKNQQSIDFNEISQICEKFGGLEQIVPDRTDNQYTRRYTYPISSANSWFVQFVYRDDAIRAYANLRTDPNWIIEWAQNINVPKNYNLLHKSKFKSSKYHQNNGIINNDGSNNNDNNNSNNNNREDSRRNGDVIEEECGHVHGSDSEEKLTSDGIYDDEDKDSEITIDKRSIFVGQLDKETTREELNRRFSTHGKIQDINLIFKPTNIFAFIKYETEEAAAAALESENHAIFLNKTMHVQYKEVGGRH

Molecule: B3
- binding result [7]: binds
